Residue numbers refer to the chain shown, from its start. Values joined by “and” are separate entries in the source; they are usually repeats but may differ in a detail not shown here. Equal values may be shown once. Read-outs that look alike come from different tables or passages of the source.

In test [1] the target is T1, recombinant human IL-5 (human, UniProt P05113 20-134).
For test [2], the target named is T1, recombinant human IL-5. Kind of test: cell-based or functional assay.
Test [3] deals with T2, recombinant human IL-5 (human, UniProt P05113 20-134). Kind of test: SPR.
Test [4] addresses T2, recombinant human IL-5. Kind of test: SPR. This is another data set of the same source.
The target of the next test is T3, guinea pig IL-5 (guinea pig, UniProt O08987 20-135).
T3 sequence: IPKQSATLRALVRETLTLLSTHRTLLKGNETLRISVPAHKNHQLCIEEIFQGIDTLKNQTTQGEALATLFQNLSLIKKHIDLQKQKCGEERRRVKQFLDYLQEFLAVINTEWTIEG
Kind of test: SPR.

Another test has as its target T4, mouse IL-5 (mouse, UniProt P04401 21-133).
T4 sequence (looked up): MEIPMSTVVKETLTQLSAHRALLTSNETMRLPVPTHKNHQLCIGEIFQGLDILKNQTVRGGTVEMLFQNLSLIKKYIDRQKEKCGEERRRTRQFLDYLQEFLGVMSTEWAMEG
Kind of test: SPR.

A further test concerns the target recombinant human IL-2 (human, UniProt P60568 21-153). Kind of test: SPR.
For another test, the target named is T5, recombinant human IL-4 (human, UniProt P05112 25-153).
T5 sequence (looked up): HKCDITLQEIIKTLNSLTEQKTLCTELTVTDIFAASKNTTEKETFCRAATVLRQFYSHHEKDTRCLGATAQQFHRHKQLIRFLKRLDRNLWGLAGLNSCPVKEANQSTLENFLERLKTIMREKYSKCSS
Kind of test: SPR. Background: In SPR one partner is held on a chip, and binding of the other changes the refractive index at the surface.

The next test has as its target T6, recombinant human IL-3 (human, UniProt P08700 20-152).
T6 sequence (looked up): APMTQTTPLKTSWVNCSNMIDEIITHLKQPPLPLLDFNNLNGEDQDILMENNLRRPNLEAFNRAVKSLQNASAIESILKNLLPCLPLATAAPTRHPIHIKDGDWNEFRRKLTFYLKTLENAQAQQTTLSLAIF
Kind of test: SPR.

Test [5] concerns the target recombinant human granulocyte macrophage colony stimulating factor (human, UniProt P04141 18-144). Kind of test: SPR.
Test [6] deals with recombinant human growth hormone (human, UniProt P01241 27-217). Kind of test: SPR.
recombinant human growth hormone, sequence (P01241 27-217 limits assumed): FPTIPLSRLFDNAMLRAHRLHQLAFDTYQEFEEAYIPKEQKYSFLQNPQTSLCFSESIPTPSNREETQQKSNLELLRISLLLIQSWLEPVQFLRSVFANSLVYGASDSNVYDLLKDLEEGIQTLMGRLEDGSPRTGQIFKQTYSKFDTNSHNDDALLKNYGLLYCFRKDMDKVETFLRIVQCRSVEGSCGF
Test [7] concerns the target T7, recombinant human macrophage colony stimulating factor (human, UniProt P09603 33-190, limits assumed).
T7 sequence (looked up): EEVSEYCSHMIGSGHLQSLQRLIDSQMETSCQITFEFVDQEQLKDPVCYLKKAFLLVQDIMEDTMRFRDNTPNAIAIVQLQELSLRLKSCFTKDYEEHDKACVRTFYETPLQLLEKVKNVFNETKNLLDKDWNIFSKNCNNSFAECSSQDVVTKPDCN
Kind of test: SPR.

Another test addresses T8, rat IL-5 (rat, UniProt Q08125 20-132).
T8 sequence (looked up): T4 sequence (looked up) with T14I, A18T, M65I, R79G, R90K, Q93H, G113V
Kind of test: SPR.

Test [8] has as its target T9, recombinant human IL-5 (human, UniProt P05113 20-134). Kind of test: SPR, Protein A capture.
The target of test [9] is T9, recombinant human IL-5. Kind of test: SPR, Protein A capture. The source holds these as a separate data set.
Test [10] deals with T9, recombinant human IL-5. Kind of test: SPR, Protein A capture. The source holds these as a separate data set.
Test [11] concerns the target T9, recombinant human IL-5. Kind of test: SPR, Protein A capture. This is another data set of the same source.
Test [12] addresses T9, recombinant human IL-5. Kind of test: SPR, Protein A capture. This is another data set of the same source.
For test [13], the target named is T9, recombinant human IL-5. Kind of test: SPR, Protein A capture. The source holds these as a separate data set.
Test [14] addresses T9, recombinant human IL-5. Kind of test: SPR, Protein A capture. The source holds these as a separate data set.
Test [15] concerns the target T9, recombinant human IL-5. Kind of test: SPR, Protein A capture. The source holds these as a separate data set.
Test [16] addresses T9, recombinant human IL-5. Kind of test: SPR, Protein A capture. The source holds these as a separate data set.
The target of test [17] is T9, recombinant human IL-5. Kind of test: SPR, Protein A capture. This is another data set of the same source.

recombinant human granulocyte macrophage colony stimulating factor, sequence (P04141 18-144 limits assumed): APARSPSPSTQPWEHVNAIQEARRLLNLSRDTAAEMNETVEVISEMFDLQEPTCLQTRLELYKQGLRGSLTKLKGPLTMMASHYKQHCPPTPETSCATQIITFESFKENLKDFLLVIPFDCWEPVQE
recombinant human IL-2, sequence (P60568 21-153 limits assumed): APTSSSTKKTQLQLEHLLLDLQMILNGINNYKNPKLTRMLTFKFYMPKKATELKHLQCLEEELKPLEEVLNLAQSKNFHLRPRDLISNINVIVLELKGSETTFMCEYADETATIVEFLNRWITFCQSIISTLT

B1: antibody 3A5 (antibody, human IgG1, lambda, V domains shown)
VH: QVQLQESGPGLVKPSQTLSLTCTVSGGSISNGGYYWSWIRQHPGKGLEWIGYIYYSGSTYYNPSLKSRVSISVDTSKNQFSLKLNSVTAADTAVYYCASLGNWFDYWGQGTLVTVSS
VL: SSILTQPPSVSVAPGQTARITCGGNNIGSKNVYWYQQKPGQAPVLVVHDDSDRPSGIPERFSGSNSGNTATLTISRVEVGDEADYSCQVWYSSSDHVVFGGGTKLTVLG
As to B1, the Kd with recombinant human IL-5 [1] is 0.036 nM. Also, the “IC50 (pM) in TF1.6G4” value with recombinant human IL-5 [2] turned out to be 35.1 pM.

B2: 3A5.294 (antibody, human IgG4 S228P, lambda, V domains shown)
VH: B1 VH with S70T, N85S
VL: B1 VL with S2Y, I3V, Y91D, V98A
As for B2, in the test with recombinant human IL-5 [3], the “% 3A5.040 kd” value is 155%. Further, the Kd with recombinant human IL-5 [4] came out at 0.123 nM.

B3: antibody 3A5.046 (antibody, human IgG4 S228P, lambda)
heavy: QVQLQESGPGLVKPSQTLSLTCTVSGGSISNGGYYWSWIRQHPGKGLEWIGYIYYSGSTYYNPSLKSRVTISVDTSKNQFSLKLSSVTAADTAVYYCASLGNWFDYWGQGTLVTVSSASTKGPSVFPLAPCSRSTSESTAALGCLVKDYFPEPVTVSWNSGALTSGVHTFPAVLQSSGLYSLSSVVTVPSSSLGTKTYTCNVDHKPSNTKVDKRVESKYGPPCPPCPAPEFLGGPSVFLFPPKPKDTLYITREPEVTCVVVDVSQEDPEVQFNWYVDGVEVHNAKTKPREEQFNSTYRVVSVLTVLHQDWLNGKEYKCKVSNKGLPSSIEKTISKAKGQPREPQVYTLPPSQEEMTKNQVSLTCLVKGFYPSDIAVEWESNGQPENNYKTTPPVLDSDGSFFLYSRLTVDKSRWQEGNVFSCSVMHEALHNHYTQKSLSLSLG
light: SYVLTQPPSVSVAPGQTARITCGGNNIGSKNVYWYQQKPGQAPVLVVHDDSDRPSGIPERFSGSNSGNTATLTISRVEVGDEADYSCQVWDSSSDHVVFGGGTKLTVLGQPKAAPSVTLFPPSSEELQANKATLVCLISDFYPGAVTVAWKADSSPVKAGVETTTPSKQSNNKYAASSYLSLTPEQWKSHRSYSCQVTHEGSTVEKTVAPTECS
Take B3: the binding result in the test with guinea pig IL-5 was “no binding (tested: 10 µg/ml)”; with mouse IL-5, “no binding (tested: 10 µg/ml)”; with recombinant human IL-2, “no binding (tested: 1 µg/ml)”; with recombinant human IL-4 it was “no binding (tested: 1 µg/ml)”; with recombinant human IL-3, “no binding (tested: 1 µg/ml)”; in test [5], “no binding (tested: 1 µg/ml)”. In addition, the results for the binding result (in test [6]; in test [7]; with rat IL-5) were “no binding (tested: 1 µg/ml)”, “no binding (tested: 1 µg/ml)” and “no binding (tested: 10 µg/ml)”, respectively.

B4: 3A5.040 (antibody, human IgG4 S228P, lambda)
heavy: not shown
light: B3 light
Consider B4, for which the “% 3A5.040 kd” value in the test with recombinant human IL-5 [8] was found to be 94%. Also, the Kd with recombinant human IL-5 [9] is 0.175 nM; in the test with recombinant human IL-5 [10] it was 0.161 nM and 0.168 nM; in the test with recombinant human IL-5 [11] it was 0.171 nM; with recombinant human IL-5 [12], 0.163 nM; in the test with recombinant human IL-5 [13], 0.18 nM; with recombinant human IL-5 [14], 0.148 nM and 0.193 nM. In addition, the Kd is 0.193 nM and 0.16 nM with recombinant human IL-5 [15]; 0.147 nM with recombinant human IL-5 [16]; 0.167 nM and 0.174 nM with recombinant human IL-5 [17]. For the same molecule, the koff was 0.000245 s⁻¹ with recombinant human IL-5 [9]; 0.000232 s⁻¹ and 0.000239 s⁻¹ in the test with recombinant human IL-5 [10]; 0.000252 s⁻¹ with recombinant human IL-5 [11]; 0.000229 s⁻¹ with recombinant human IL-5 [12]; 0.000246 s⁻¹ with recombinant human IL-5 [13]; 0.000214 s⁻¹ and 0.000285 s⁻¹ in the test with recombinant human IL-5 [14]. Also, the koff with recombinant human IL-5 [15] was 0.000261 s⁻¹ and 0.000232 s⁻¹; with recombinant human IL-5 [16], 0.000213 s⁻¹; with recombinant human IL-5 [17] it was 0.000237 s⁻¹ and 0.000252 s⁻¹. Also, the kon with recombinant human IL-5 [9] is 1.4e+06 M⁻¹ s⁻¹; with recombinant human IL-5 [10] it was 1.44e+06 M⁻¹ s⁻¹ and 1.43e+06 M⁻¹ s⁻¹; in the test with recombinant human IL-5 [11], 1.47e+06 M⁻¹ s⁻¹; in the test with recombinant human IL-5 [12], 1.41e+06 M⁻¹ s⁻¹; with recombinant human IL-5 [13], 1.36e+06 M⁻¹ s⁻¹; in the test with recombinant human IL-5 [14], 1.44e+06 M⁻¹ s⁻¹ and 1.48e+06 M⁻¹ s⁻¹. For the same molecule, the kon with recombinant human IL-5 [15] is 1.36e+06 M⁻¹ s⁻¹ and 1.45e+06 M⁻¹ s⁻¹; with recombinant human IL-5 [16], 1.45e+06 M⁻¹ s⁻¹; in the test with recombinant human IL-5 [17] it was 1.42e+06 M⁻¹ s⁻¹ and 1.45e+06 M⁻¹ s⁻¹.

As a reminder, the Kd is the equilibrium constant for the complex coming apart. A word on the koff: it is the first-order rate constant of dissociation. The term kon denotes the rate constant with which the complex forms.

These data come from US20180186873A1 (CEPHALON, published 2018).
